What is called Kd is the free concentration of one partner at which half of the binding sites on the other are occupied at equilibrium, for simple one-to-one binding. A high value points to a looser complex.

The series has as its target SARS-CoV-2 spike receptor-binding domain (RBD) (SARS-CoV-2, UniProt P0DTC2 319-541). Description: 40 min incubation, immobilized aptamer.

B1: SARS-CoV-2 RBD aptamer, amine-terminated (ssDNA)
DNA: CAGCACCGACCTTGTGCTTTGGGAGTGCTGGTCCAAGGGCGTTAATGGACA
modifications: 5'-NH2-(CH2)6
The molecule B1 yielded a Kd of 3.4 nM.

The values are drawn from paper PMC8240452.
